Where two headings read alike, the source gives them in different places.
B1: p107 interdomain region (residues 612-687) (domain or fragment)
chain: MPMSPLMHPRVKEVRTDSGSLRRDMQPLSPISVHERYSSPTAGSAKRRLFGEDPPKEMLMDKIITEGTKLKIAPSS

Tests used:
[1] = molecular target: PP2A:B55 holoenzyme (PP2Aa:B55:PP2Ac), purified, active, methylated on PP2Ac L309 (UniProt P30153)
[2] = molecular target: PP2A:B55 holoenzyme (PP2Aa:B55:PP2Ac), purified, active, methylated on PP2Ac L309 (UniProt P30153); remark: listed apart in the source

Sequence of UniProt P30153 (P30153 9-589, chain 1 of 3): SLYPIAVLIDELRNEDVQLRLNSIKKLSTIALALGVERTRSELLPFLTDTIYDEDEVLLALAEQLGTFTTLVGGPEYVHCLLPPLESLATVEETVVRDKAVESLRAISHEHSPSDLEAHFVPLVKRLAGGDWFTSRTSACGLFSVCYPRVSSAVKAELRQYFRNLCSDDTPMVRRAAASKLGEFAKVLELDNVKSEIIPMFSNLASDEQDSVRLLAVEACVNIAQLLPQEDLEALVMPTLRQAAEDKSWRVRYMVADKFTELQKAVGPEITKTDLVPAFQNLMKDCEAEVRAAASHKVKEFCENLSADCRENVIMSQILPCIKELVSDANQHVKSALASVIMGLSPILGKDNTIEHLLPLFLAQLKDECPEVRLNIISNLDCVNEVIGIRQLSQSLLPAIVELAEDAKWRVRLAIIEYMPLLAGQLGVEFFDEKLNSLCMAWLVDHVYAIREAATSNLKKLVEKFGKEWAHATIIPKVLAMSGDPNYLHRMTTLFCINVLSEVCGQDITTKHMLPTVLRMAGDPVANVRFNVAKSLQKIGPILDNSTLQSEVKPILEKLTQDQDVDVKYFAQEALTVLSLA
Sequence of UniProt P30153 (P63151 whole entry, chain 2 of 3, further chain): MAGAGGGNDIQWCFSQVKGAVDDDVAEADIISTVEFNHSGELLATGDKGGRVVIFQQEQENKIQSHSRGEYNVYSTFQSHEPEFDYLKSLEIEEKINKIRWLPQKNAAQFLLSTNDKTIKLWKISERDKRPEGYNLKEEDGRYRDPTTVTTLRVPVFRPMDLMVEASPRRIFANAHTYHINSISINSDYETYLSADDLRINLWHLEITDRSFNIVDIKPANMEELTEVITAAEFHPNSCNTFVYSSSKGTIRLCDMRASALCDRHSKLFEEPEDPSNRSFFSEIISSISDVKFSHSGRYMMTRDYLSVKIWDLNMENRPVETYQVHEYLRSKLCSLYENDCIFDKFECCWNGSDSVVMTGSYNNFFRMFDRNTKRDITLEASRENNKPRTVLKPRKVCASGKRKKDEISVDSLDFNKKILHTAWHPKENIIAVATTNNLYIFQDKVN
Sequence of UniProt P30153 (P67775 whole entry, chain 3 of 3, further chain): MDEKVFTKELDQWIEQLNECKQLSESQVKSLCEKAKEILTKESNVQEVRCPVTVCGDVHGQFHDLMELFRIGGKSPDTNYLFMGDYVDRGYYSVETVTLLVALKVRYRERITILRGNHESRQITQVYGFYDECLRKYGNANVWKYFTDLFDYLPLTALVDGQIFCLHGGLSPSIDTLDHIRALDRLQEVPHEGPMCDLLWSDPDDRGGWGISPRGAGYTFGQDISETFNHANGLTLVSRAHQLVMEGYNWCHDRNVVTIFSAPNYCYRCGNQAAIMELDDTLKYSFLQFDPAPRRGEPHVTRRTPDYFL

IC50 of inhibition of PP2A:B55 (1 nM) dephosphorylation of DiFMUP (50 uM) [1] | IC50 of inhibition of PP2A:B55 (1 nM) dephosphorylation of DiFMUP (50 uM) [2] | Binder
245 nM | – | B1
– | 1100 nM | RSSNDYTSQMYSAKPYAHILSVPVSETAYPGQTQYQTLQQTQPYAVYEE (domain or fragment) [Eya3 PP2A:B55 interaction domain (aa 62-108) with C-terminal EE]
